Target: SibV (predicted extradiol dioxygenase of sibiromycin biosynthesis), holo form reconstituted with Fe2+ (Streptosporangium sibiricum)
Test: SEC

Substance: SibV (predicted extradiol dioxygenase of sibiromycin biosynthesis), holo form reconstituted with Fe2+ (enzyme)
- stoichiometry N: 2

Reference: article PMC4302019
